From article PMC2581593 (The Journal of Biological Chemistry, 2008)
Changes are numbered by the printed parent chain. Names and notes keep the numbering of the source.

B1: syt 1 C2AB T328A (domain or fragment)
chain: KGGKNAINMKDVKDLGKTMKDQALKDDDAETGLTDGEEKEEPKEEEKLGKLQYSLDYDFQNNQLLVGIIQAAELPALDMGGTSDPYVKVFLLPDKKKKFETKVHRKTLNPVFNEQFTFKVPYSELGGKTLVMAVYDFDRFSKHDIIGEFKVPMNTVDFGHVTEEWRDLQSAEKEEQEKLGDICFSLRYVPTAGKLTVVILEAKNLKKMDVGGLSDPYVKIHLMQNGKRLKKKKATIKKNTLNPYYNESFSFEVPFEQIQKVQVVVTVLDYDKIGKNDAIGKVFVGYNSTGAELRHWSDMLANPRRPIAQWHTLQVEEEVDAMLAVKK
B2: syt 1 C2AB E341A (domain or fragment)
chain: B1 chain with A234T, E247A
B3: syt 1 C2AB K313R/K325R/K327R (domain or fragment)
chain: B1 chain with K219R, K231R, K233R, A234T

Molecular target: t-SNARE heterodimer (mouse SNAP-25B and rat syntaxin 1A), reconstituted into vesicles (rat | mouse, UniProt P32851;P60879-1)
Assay: co-flotation

t-SNARE heterodimer (mouse SNAP-25B and rat syntaxin 1A), reconstituted into vesicles, sequence (P32851 whole entry, chain 1 of 2): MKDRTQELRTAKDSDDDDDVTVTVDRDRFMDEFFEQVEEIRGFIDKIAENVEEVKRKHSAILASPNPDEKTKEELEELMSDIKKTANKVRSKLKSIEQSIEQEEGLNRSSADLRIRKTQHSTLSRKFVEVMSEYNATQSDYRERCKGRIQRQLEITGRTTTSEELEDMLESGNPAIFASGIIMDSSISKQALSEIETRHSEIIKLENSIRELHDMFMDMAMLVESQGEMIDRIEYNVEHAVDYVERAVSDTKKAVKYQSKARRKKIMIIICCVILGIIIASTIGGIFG
t-SNARE heterodimer (mouse SNAP-25B and rat syntaxin 1A), reconstituted into vesicles, sequence (P60879 whole entry, chain 2 of 2): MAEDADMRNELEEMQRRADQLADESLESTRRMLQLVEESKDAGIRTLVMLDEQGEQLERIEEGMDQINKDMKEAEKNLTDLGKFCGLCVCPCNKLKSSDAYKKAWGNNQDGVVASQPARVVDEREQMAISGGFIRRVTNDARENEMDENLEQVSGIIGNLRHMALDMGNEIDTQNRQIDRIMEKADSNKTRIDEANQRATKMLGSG

Binder | binding result
B1 | binds
B2 | binds
B3 | binds
